Several values for one entry are separate records, joined by “and”; a condition that tells them apart may be missing. Identical values can stand only once.
Columns and labels:
[1] = target: sGC beta1 H-NOXA domain H-NOXA (UniProt Q02153); details: cited from earlier work
[2] = target: sGC beta1 catalytic domain catalytic domain (UniProt Q02153); details: cited from earlier work
[3] = target: the molecule itself; experiment: SEC; analytic gel filtration on a Superdex 75 column calibrated with Mw standards, before crystallization; major 38.5 kD and minor 19.5 kD species

sGC beta1 H-NOXA domain H-NOXA (from UniProt Q02153)
Kd [1]: < 60 µM

sGC beta1 catalytic domain catalytic domain (from UniProt Q02153)
Kd [2]: 6 µM

B1: Rattus norvegicus soluble guanylyl cyclase β1 subunit coiled-coil domain, residues 348-409, I371M (domain or fragment)
chain: GSHMATRDLVLLGEQFREEYKLTQELEMLTDRLQLTLRALEDEKKKTDTLLYSVLPPSVANELRHK
modifications: not fully specified (residues 4, 28); printed as gshmATRDLVLLGEQFREEYKLTQELE**M**LTDRLQLTLRALEDEKKKTDTLLYSVLPPSVANELRHK; also: expressed with selenomethionine (Met replaced by SeMet)
notes: N-terminal cloning artefact left after thrombin cleavage of the pET15b tag; The printed calculated mass of 7712.86 Da fits GSHM + 348-409 with I371M (my calculation; wild type would be about 7694.8 Da), and only the I371M construct's purification is described; One molecule is therefore used for all three experiments; also called sGCβ1 CC; rsGCβ1 CC domain; source: E. coli BL21 (DE3) pLysS, …
stoichiometry N [3]: 4 and 2

Reference: publication PMC2828450, “Crystal structure of the signaling helix coiled-coil domain of the β1 subunit of the soluble guanylyl cyclase” (BMC Structural Biology, 2010)
